biological target: human FcRn (probe in the FACS analysis of bacterially displayed Fc variants) (human, UniProt P55899 24-297; P61769 21-119, limits assumed); experiment: FACS of bacterially displayed Fc variants with human FcRn, pH 6.0

binding result	Binder
binds	Fc variant L309G/Q311Y/M428L (bacterial display) (other, also called Q311Y in M428L and L309G Fc variant) DKTHTCPPCPAPELLGGPSVFLFPPKPKDTLMISRTPEVTCVVVDVSHEDPEVKFNWYVDGVEVHNAKTKPREEQYNSTYRVVSVLTVGHYDWLNGKEYKCKVSNKALPAPIEKTISKAKGQPREPQVYTLPPSRDELTKNQVSLTCLVKGFYPSDIAVEWESNGQPENNYKTTPPVLDSDGSFFLYSKLTVDKSRWQQGNVFSCSVLHEALHNHYTQKSLSLSPGK
binds	Fc variant L309G/Q311A/M428L (bacterial display) (other, also called Q311A in M428L and L309G Fc variant) DKTHTCPPCPAPELLGGPSVFLFPPKPKDTLMISRTPEVTCVVVDVSHEDPEVKFNWYVDGVEVHNAKTKPREEQYNSTYRVVSVLTVGHADWLNGKEYKCKVSNKALPAPIEKTISKAKGQPREPQVYTLPPSRDELTKNQVSLTCLVKGFYPSDIAVEWESNGQPENNYKTTPPVLDSDGSFFLYSKLTVDKSRWQQGNVFSCSVLHEALHNHYTQKSLSLSPGK
binds	Fc variant L309G/Q311K/M428L (bacterial display) (other, also called Q311K in M428L and L309G Fc variant) DKTHTCPPCPAPELLGGPSVFLFPPKPKDTLMISRTPEVTCVVVDVSHEDPEVKFNWYVDGVEVHNAKTKPREEQYNSTYRVVSVLTVGHKDWLNGKEYKCKVSNKALPAPIEKTISKAKGQPREPQVYTLPPSRDELTKNQVSLTCLVKGFYPSDIAVEWESNGQPENNYKTTPPVLDSDGSFFLYSKLTVDKSRWQQGNVFSCSVLHEALHNHYTQKSLSLSPGK

Second part, the binder before the results:

Binder	binding result
Fc variant L309G/Q311L/M428L (bacterial display) (other, also called Q311L in M428L and L309G Fc variant) DKTHTCPPCPAPELLGGPSVFLFPPKPKDTLMISRTPEVTCVVVDVSHEDPEVKFNWYVDGVEVHNAKTKPREEQYNSTYRVVSVLTVGHLDWLNGKEYKCKVSNKALPAPIEKTISKAKGQPREPQVYTLPPSRDELTKNQVSLTCLVKGFYPSDIAVEWESNGQPENNYKTTPPVLDSDGSFFLYSKLTVDKSRWQQGNVFSCSVLHEALHNHYTQKSLSLSPGK	binds
Fc variant L309G/Q311I/M428L (bacterial display) (other, also called Q311I in M428L and L309G Fc variant) DKTHTCPPCPAPELLGGPSVFLFPPKPKDTLMISRTPEVTCVVVDVSHEDPEVKFNWYVDGVEVHNAKTKPREEQYNSTYRVVSVLTVGHIDWLNGKEYKCKVSNKALPAPIEKTISKAKGQPREPQVYTLPPSRDELTKNQVSLTCLVKGFYPSDIAVEWESNGQPENNYKTTPPVLDSDGSFFLYSKLTVDKSRWQQGNVFSCSVLHEALHNHYTQKSLSLSPGK	binds
Fc variant L309G/Q311W/M428L (bacterial display) (other, also called Q311W in M428L and L309G Fc variant) DKTHTCPPCPAPELLGGPSVFLFPPKPKDTLMISRTPEVTCVVVDVSHEDPEVKFNWYVDGVEVHNAKTKPREEQYNSTYRVVSVLTVGHWDWLNGKEYKCKVSNKALPAPIEKTISKAKGQPREPQVYTLPPSRDELTKNQVSLTCLVKGFYPSDIAVEWESNGQPENNYKTTPPVLDSDGSFFLYSKLTVDKSRWQQGNVFSCSVLHEALHNHYTQKSLSLSPGK	binds
Fc variant L309G/Q311H/M428L (bacterial display) (other, also called Q311H in M428L and L309G Fc variant) DKTHTCPPCPAPELLGGPSVFLFPPKPKDTLMISRTPEVTCVVVDVSHEDPEVKFNWYVDGVEVHNAKTKPREEQYNSTYRVVSVLTVGHHDWLNGKEYKCKVSNKALPAPIEKTISKAKGQPREPQVYTLPPSRDELTKNQVSLTCLVKGFYPSDIAVEWESNGQPENNYKTTPPVLDSDGSFFLYSKLTVDKSRWQQGNVFSCSVLHEALHNHYTQKSLSLSPGK	binds
Fc variant L309G/Q311V/M428L (bacterial display) (other, also called Q311V in M428L and L309G Fc variant) DKTHTCPPCPAPELLGGPSVFLFPPKPKDTLMISRTPEVTCVVVDVSHEDPEVKFNWYVDGVEVHNAKTKPREEQYNSTYRVVSVLTVGHVDWLNGKEYKCKVSNKALPAPIEKTISKAKGQPREPQVYTLPPSRDELTKNQVSLTCLVKGFYPSDIAVEWESNGQPENNYKTTPPVLDSDGSFFLYSKLTVDKSRWQQGNVFSCSVLHEALHNHYTQKSLSLSPGK	binds
Fc variant L309G/Q311T/M428L (bacterial display) (other, also called Q311T in M428L and L309G Fc variant) DKTHTCPPCPAPELLGGPSVFLFPPKPKDTLMISRTPEVTCVVVDVSHEDPEVKFNWYVDGVEVHNAKTKPREEQYNSTYRVVSVLTVGHTDWLNGKEYKCKVSNKALPAPIEKTISKAKGQPREPQVYTLPPSRDELTKNQVSLTCLVKGFYPSDIAVEWESNGQPENNYKTTPPVLDSDGSFFLYSKLTVDKSRWQQGNVFSCSVLHEALHNHYTQKSLSLSPGK	binds
